Experimental data: patent publication US20230391845A1, “GLP-1, GIP AND GLUCAGON RECEPTOR TRIPLE AGONISTS” (priority 2020, published 2023)
Where no end group is shown, it is not given here. [ ]: non-standard residue; d: D form. Aib = CC(C)(N)C(=O)O

B1: Compound No. 47 (peptide)
peptide: Y[Aib]QGTFTSDYSYYLEKQAA[Aib]EFVQWLLEGGPSSGAPPPS-NH2
modifications: not fully specified (residue 16); printed as Y-Aib-QGTFTSDYSYYLE-K[(2S)-2-amino-6-[[(2S)-2-amino-6-[[(4S)-4-carboxy-4-(19-carboxynonadecanoylamino)butanoyl]amino]hexanoyl]amino]hexanoyl]-QAA-Aib-EFVQWLLEGGPSSGAPPPS-NH2
B2: Compound No. 46 (peptide)
peptide: Y[Aib]QGTFTSDYSILLEKQAA[Aib]EFVQWLLEGGPSSGAPPPS-NH2
modifications: not fully specified (residue 16); printed as Y-Aib-QGTFTSDYSILLE-K[(2S)-2-amino-6-[[(2S)-2-amino-6-[[(4S)-4-carboxy-4-(19-carboxynonadecanoylamino)butanoyl]amino]hexanoyl]amino]hexanoyl]-QAA-Aib-EFVQWLLEGGPSSGAPPPS-NH2
B3: Compound No. 44 (peptide)
peptide: H[Aib]HGTFTSDYSIYLEKQAA[Aib]EFVQWLLEGGPSSGAPPPS-NH2
modifications: not fully specified (residue 16); printed as H-Aib-HGTFTSDYSIYLE-K[2-[2-[2-[[2-[2-[2-[[(4S)-4-carboxy-4-(19-carboxynonadecanoylamino)butanoyl]amino]ethoxy]ethoxy]acetyl]amino]ethoxy]ethoxy]acetyl]-QAA-Aib-EFVQWLLEGGPSSGAPPPS-NH2
B4: Compound No. 41 (peptide)
peptide: H[Aib]HGTFTSDYSILLEKKYA[Aib]EFVQWLLEGGPSSGAPPPS-NH2
modifications: not fully specified (residue 16); printed as H-Aib-HGTFTSDYSILLE-K[(2S)-2-amino-6-[[(2S)-2-amino-6-[[(4S)-4-carboxy-4-(19-carboxynonadecanoylamino)butanoyl]amino]hexanoyl]amino]hexanoyl]-KYA-Aib-EFVQWLLEGGPSSGAPPPS-NH2
B5: Compound No. 49 (peptide)
peptide: H[Aib]HGTFTSDYSILLEKQAAEEFVQWLLEGGPSSGAPPPS-NH2
modifications: not fully specified (residue 16); printed as H-Aib-HGTFTSDYSILLE-K[(2S)-2-amino-6-[[(2S)-2-amino-6-[[(4S)-4-carboxy-4-(19-carboxynonadecanoylamino)butanoyl]amino]hexanoyl]amino]hexanoyl]-QAAEEFVQWLLEGGPSSGAPPPS-NH2
B6: Compound No. 42 (peptide)
peptide: H[Aib]HGTFTSDYSYLLEKQAA[Aib]EFVQWLLEGGPSSGAPPPS-NH2
modifications: not fully specified (residue 16); printed as H-Aib-HGTFTSDYSYLLE-K[(2S)-2-amino-6-[[(2S)-2-amino-6-[[(4S)-4-carboxy-4-(19-carboxynonadecanoylamino)butanoyl]amino]hexanoyl]amino]hexanoyl]-QAA-Aib-EFVQWLLEGGPSSGAPPPS-NH2
B7: Compound No. 43 (peptide)
peptide: H[Aib]HGTFTSDYSILLEKQAA[Aib]EFVQWLLEGGPSSGAPPPS-NH2
modifications: not fully specified (residue 16); printed as H-Aib-HGTFTSDYSILLE-K[(2S)-2-amino-6-[[(2S)-2-amino-6-[[(4S)-4-carboxy-4-(19-carboxynonadecanoylamino)butanoyl]amino]hexanoyl]amino]hexanoyl]-QAA-Aib-EFVQWLLEGGPSSGAPPPS-NH2
B8: Compound No. 45 (peptide)
peptide: H[Aib]HGTFTSDYSILLEKQAA[Aib]EFVQWLLEGGPSSGAPPPS-NH2
modifications: not fully specified (residue 16); printed as H-Aib-HGTFTSDYSILLE-K[2-[2-[2-[[2-[2-[2-[[(4S)-4-carboxy-4-(19-carboxynonadecanoylamino)butanoyl]amino]ethoxy]ethoxy]acetyl]amino]ethoxy]ethoxy]acetyl]-QAA-Aib-EFVQWLLEGGPSSGAPPPS-NH2
B9: Compound No. 40 (peptide)
peptide: H[Aib]HGTFTSDYSYYLEKQAA[Aib]EFVQWLLEGGPSSGAPPPS-NH2
modifications: not fully specified (residue 16); printed as H-Aib-HGTFTSDYSYYLE-K[2-[2-[2-[[2-[2-[2-[[(4S)-4-carboxy-4-(19-carboxynonadecanoylamino)butanoyl]amino]ethoxy]ethoxy]acetyl]amino]ethoxy]ethoxy]acetyl]-QAA-Aib-EFVQWLLEGGPSSGAPPPS-NH2
B10: Compound No. 50 (peptide)
peptide: H[Aib]HGTFTSDYSILLEKQAAEEFVQWLLEGGPSSGAPPPS-OH
modifications: not fully specified (residue 16); printed as H-Aib-HGTFTSDYSILLE-K[(2S)-2-amino-6-[[(2S)-2-amino-6-[[(4S)-4-carboxy-4-(19-carboxynonadecanoylamino)butanoyl]amino]hexanoyl]amino]hexanoyl]-QAAEEFVQWLLEGGPSSGAPPPS-OH
B11: Compound No. 48 (peptide)
peptide: Y[Aib]QGTFTSDYSYLLEKQAA[Aib]EFVQWLLEGGPSSGAPPPS-NH2
modifications: not fully specified (residue 16); printed as Y-Aib-QGTFTSDYSYLLE-K[(2S)-2-amino-6-[[(2S)-2-amino-6-[[(4S)-4-carboxy-4-(19-carboxynonadecanoylamino)butanoyl]amino]hexanoyl]amino]hexanoyl]-QAA-Aib-EFVQWLLEGGPSSGAPPPS-NH2
B12: Compound No. 51 (peptide)
peptide: H[Aib]HGTFTSDYSILLEKQAAEEFVQWLLEGGPSSGAPPPS-OH
modifications: not fully specified (residue 16); printed as H-Aib-HGTFTSDYSILLE-K[(2S)-2-amino-6-[[(2S)-2-amino-6-[[(4S)-4-carboxy-4-(17-carboxyheptadecanoylamino)butanoyl]amino]hexanoyl]amino]hexanoyl]-QAAEEFVQWLLEGGPSSGAPPPS-OH

What was measured:
Assay in all cases: cell-based or functional assay
human glucagon receptor = human glucagon receptor (human, UniProt P47871 26-477)
[1] = biological target: human glucagon-like peptide 1 receptor (human, UniProt P43220 24-463)
[2] = biological target: T1, human glucose-dependent insulinotropic polypeptide receptor (human, UniProt P48546 22-466)
T1 sequence (looked up): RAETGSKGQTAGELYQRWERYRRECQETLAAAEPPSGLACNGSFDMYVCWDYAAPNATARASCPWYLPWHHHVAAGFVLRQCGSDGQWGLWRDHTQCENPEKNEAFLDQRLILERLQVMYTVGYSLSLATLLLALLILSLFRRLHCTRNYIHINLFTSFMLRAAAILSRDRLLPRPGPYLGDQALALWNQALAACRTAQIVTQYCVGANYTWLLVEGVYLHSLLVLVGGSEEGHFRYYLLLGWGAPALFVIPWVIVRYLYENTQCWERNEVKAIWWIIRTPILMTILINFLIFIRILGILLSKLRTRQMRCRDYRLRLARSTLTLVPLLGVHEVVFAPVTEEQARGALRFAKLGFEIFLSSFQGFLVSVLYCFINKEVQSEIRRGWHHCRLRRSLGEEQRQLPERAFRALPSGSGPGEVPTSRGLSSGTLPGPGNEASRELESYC

Chain of human glucagon receptor (P47871 26-477): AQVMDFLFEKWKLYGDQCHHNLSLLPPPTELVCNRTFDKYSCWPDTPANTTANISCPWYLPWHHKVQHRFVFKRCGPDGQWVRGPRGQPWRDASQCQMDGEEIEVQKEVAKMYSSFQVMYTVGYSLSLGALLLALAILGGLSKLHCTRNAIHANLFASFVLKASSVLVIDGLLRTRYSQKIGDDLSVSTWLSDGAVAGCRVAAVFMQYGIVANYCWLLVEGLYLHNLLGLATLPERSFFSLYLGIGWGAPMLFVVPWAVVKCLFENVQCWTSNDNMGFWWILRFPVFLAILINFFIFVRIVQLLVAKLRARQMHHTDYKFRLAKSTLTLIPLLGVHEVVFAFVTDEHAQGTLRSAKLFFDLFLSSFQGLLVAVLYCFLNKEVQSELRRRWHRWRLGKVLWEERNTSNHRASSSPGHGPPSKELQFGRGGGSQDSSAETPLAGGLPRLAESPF

| Binder | hGcgR CRE Luc EC50 (pM) (human glucagon receptor) | hGLP-1R CRE Luc EC50 (pM) [1] | hGIPR CRE Luc EC50 (pM) [2] |
| --- | --- | --- | --- |
| B1 | 28.7 pM | 5.6 pM | 14.9 pM |
| B2 | 25 pM | 8.3 pM | 3 pM |
| B3 | 45.2 pM | 1.8 pM | 6.1 pM |
| B4 | 7.6 pM | 4.3 pM | 9.3 pM |
| B5 | 3.5 pM | 1.4 pM | 2.1 pM |
| B6 | 8 pM | 1.9 pM | 3.8 pM |
| B7 | 10.8 pM | 3 pM | 2.8 pM |
| B8 | 6.8 pM | 2.4 pM | 1.9 pM |
| B9 | 36.4 pM | 3.7 pM | 5.7 pM |
| B10 | 18.5 pM | 1 pM | 1.9 pM |
| B11 | 12.6 pM | 10.1 pM | 9.2 pM |
| B12 | 79.9 pM | 0.7 pM | 1.8 pM |
